The source of these data is PMC11960969, “Mdga2 deficiency leads to an aberrant activation of BDNF/TrkB signaling that underlies autism-relevant synaptic and behavioral changes in mice” (PLOS Biology, 2025).

Broadly, the Kd is the concentration at which binding is half-saturated.

In test [1] the target is T1, recombinant TrkB protein (full-length human TrkB, His) (human, UniProt Q16620 32-822).
T1 construct: TrkB, human, full-length cDNA in the pcDNA6-His vector; also called purified human TrkB protein; human TrkB protein; source: HEK293T, purified (His-tag Protein Purification Kit)
Description: SPR; TrkB immobilised on a Biacore CM5 chip by amine coupling; recombinant MDGA2 protein or MDGA2-P2 peptide flowed over at a series of concentrations; Biacore T100 Evaluation software. The following applies: both partners purified. For orientation: In SPR one partner is held on a chip, and binding of the other changes the refractive index at the surface.

The target of test [2] is T1, recombinant TrkB protein (full-length …). Description: pull-down; purified human TrkB protein incubated with GST-fused MDGA2-L1, MDGA2-L2 or GST and pulled down with Glutathione Sepharose 4B; immunoblot. Particulars: both partners purified.

T1 sequence (Q16620 32-822): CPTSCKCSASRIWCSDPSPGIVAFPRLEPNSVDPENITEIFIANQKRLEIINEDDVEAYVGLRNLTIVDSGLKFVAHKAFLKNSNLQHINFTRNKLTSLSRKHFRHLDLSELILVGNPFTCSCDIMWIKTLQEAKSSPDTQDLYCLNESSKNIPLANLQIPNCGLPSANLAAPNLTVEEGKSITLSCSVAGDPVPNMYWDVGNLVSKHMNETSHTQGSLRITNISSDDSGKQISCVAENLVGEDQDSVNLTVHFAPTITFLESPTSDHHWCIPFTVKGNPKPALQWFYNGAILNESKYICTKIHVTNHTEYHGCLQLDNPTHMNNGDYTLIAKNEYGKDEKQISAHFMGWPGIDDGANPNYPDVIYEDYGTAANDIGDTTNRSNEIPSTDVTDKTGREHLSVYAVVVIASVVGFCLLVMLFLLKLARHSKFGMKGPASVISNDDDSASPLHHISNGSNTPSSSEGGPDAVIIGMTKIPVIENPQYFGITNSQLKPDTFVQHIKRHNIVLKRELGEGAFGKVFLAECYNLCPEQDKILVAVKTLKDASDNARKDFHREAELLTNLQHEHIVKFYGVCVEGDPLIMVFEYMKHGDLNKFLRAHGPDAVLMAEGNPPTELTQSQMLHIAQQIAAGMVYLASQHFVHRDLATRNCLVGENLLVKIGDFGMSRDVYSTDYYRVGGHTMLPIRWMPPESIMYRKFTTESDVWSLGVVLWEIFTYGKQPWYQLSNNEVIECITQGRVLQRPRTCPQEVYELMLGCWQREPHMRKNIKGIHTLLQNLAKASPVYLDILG

B1: MDGA2-P2 peptide (aa 812-833), label not stated (peptide)
peptide: KARLLSPVFSIAPKNPYGPTNT
notes: MDGA2, human, residues 812-833 (P2); The methods tell the synthesis only of the biotin-labeled peptide; also called MDGA2-derived peptide; source: synthetic peptide
B1: the Kd in test [1] amounted to 9.2 nM.

B2: GST-fused MDGA2-L2 (MDGA2 aa 787-833) (domain or fragment, human, UniProt Q7Z553 787-833, looked up)
chain: NADRSGSKEGFYMYIETSRPRLEGEKARLLSPVFSIAPKNPYGPTNT
notes: MDGA2, human, residues 787-833 (L2, second segment of the M1 half of the MAM domain); also called GST-tagged L2; source: bacteria, purified (Glutathione Sepharose 4B)
Regarding B2, the binding result in test [2] is “binds”.
